test: yeast display, Sf9 membrane polyspecificity reagent, FACS + sequencing; frameworks hold sequencing errors
In short: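 Nanobodies from a synthetic yeast display library (Saccharomyces cerevisiae BJ5465), induced 36–48 hours with galactose, were stained 1 hour at 4 °C with 10% biotinylated, detergent-solubilized Sf9 membrane reagent, enriched on streptavidin microbeads, then FACS-sorted. Anti-HA (expression) and streptavidin (reagent binding) fluorescence set low and high (top ~1%) gates. Polyreactivity labels come from the gate of origin. Genes were colony-PCR amplified, MiSeq 2 × 250 sequenced and filtered by CDR length.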

Sequence	polyreactivity (PSR sort gate)
QVQLVESGGCLVQAGGSLRLSCAASGIIFTLYAMGWYRQAPGKEREIVAAISGSGGSTYYADSVKGRFTISRDNAKNTVYLQMNSLKPEDTAVYYCAARGVRGTGLDSRMYYWGQGTQVTVSS	high polyreactivity
QVQLVESGGGLVQAGGSLRLSCAASGRIFDWYVMGWYRQAPGKERELVAAINSGVSTKYADSVKGRFTISRDNAKNTVYLQMNSLKPEDTAVYYCAAQSFSDYRRTGRKSSYYYWGQGTQVTVSS	low polyreactivity
QVQLVESGGGLVQAGGSLRLSCAASGSTFIKNAMGWYRQAPGKERELVAAISSSASSTYYADSVKGRFTISRDNAKNTVYLQMNSLKPEDTAVYYCAARASRKYNYWGQGTQVTVSS	high polyreactivity
QVQLVDSGGGLVQAGGSLRLSCAASGRTFSYYGMGWYRQAPGQERELVACIRRRGGSTYYADSVKGRFTISRDNAKNNVSLQMNSLNPEDTAVYYCTAATYGDYSNLGYGYWGQGTQVTVSS	high polyreactivity
QVQLVESGGCLVQPGGSLRLSCAASGRTSVRNAMGWYRQAPGKERELVAAISNGGRTNYADSVKGRFTISRGNAKNTVYLQMNSLKPQDTAVYYCAARGFWLYYHGGVRSGYDYWGQGTQVTVSS	high polyreactivity
QVQLVESGGGLVQAGGSLRLSCAASGFIFGDYAMGWYRQAPGKEGELVAAIRGSDSTTYYADSVKGRFTISRDNAKNTVYLQMNSLKPEDTAVYYCAAVGVVPLKKSARVYYWGQGTQVTVSS	low polyreactivity
QVQLVESGGGLVQAGGSLRLSCAASGITFAKYAMGWYRQAPGKERELVAAISTSGGSTYYADSVKGRFTISRDNAKNTVYLQMYSLKPEDTAVYYCNVDTYIWYYLRYYNYWGQGTQVTVSS	high polyreactivity
QVQLVESGGGLVQAGGSLRLSCAASGSIFRFYAMGWYRQAPGKERELVADISWRGGSTYYADSVKGRFTISRDNAKNTVYLQMNSLKPEDTAVSYCAAGYYRASTTVTHGGIEGDSWGQGTQVTVSS	high polyreactivity
QVQLVESGGGLVQAGGSLRLSCAASGSIFGRYAMGWSRQAPGKERELVAAISRGGSTNYADSVKGRFTISRDNAKNTVYLQMNSLKPEDTAVYYCNRKPYYVSSTRYDYWGQGTQVTVAS	high polyreactivity
QLQLVESGGGLVQAGGSLRLSCAASGSIFRVYAMGWYRQARGKERELVAAISSSGVRTSYADSVKGRFTISRDNAKNTVYLQMNSLKPEDTAVYYCADRYPYGYYHWGQGTQVTVSS	high polyreactivity
QVHLVESGGGLVQAGGSLRLSCAASGRTFSTYAMGWYRQAPGTERELVAAISSGGGRTYYADSVKGRFTISRDNAKNTVYLQMNRLKPEDTAVYYCAADRYFRSSRSYEYWGQGTLVTVSS	low polyreactivity
QVQLVESGGGLVQAGGSLRLSCAASGSTLRTYAMGWYRQAPGKERELVAAISFSTTSTYYADSVKGRFTISRDNAKNTVYLQMNSLKPEDTAVYYCAAEYWYYWEYEYWGQGTQVTVSS	high polyreactivity
QVQNVDSGGGLVQAGGSLRLSCPPSGISYRGYAMGWYRQAPGKERELVAAISVRGASTYYAASVKGRFTISRDNAKYTVYLPMNSLKPEDTAVYYCGATRPSWRYNYWGQGTEVTVSS	high polyreactivity
QVQLVESGGGLVQAGGSLRLSCAASGFTFGSYVMGWYRQAPGKERELVADISIRGGSTYYADSVKGRFTISRDNAKNTVYLQMHSLKPEDTAVYDCNADPAFYYWEGIVGGADYDYWGQGTQVTVSS	low polyreactivity
QVQLVESGGGLVQAGGSLRLSCAASGRIFGKNAMGWYRQAPGKERELVAAISSSGGSTYYADSVKGRFTISRDNAKNTVYLQMNSLKPEDTAVYYCAAGVTRGMDYWGQGTQVTVSS	high polyreactivity
QVQLVESGGGLVQAGGSLRLSCAASGRIFWINAMGWYRQAPGKERELVAAISWRGDSTYYADSVKGRFTISRDNAKNTVYLQMNSLKPEDTAVYYCAAETRYLYDYWGQGSQVTVSS	high polyreactivity
QVQLVESGGGLVQAGGSLRLSCAATGSIFRYYAMGWYRQAPGKERELVAAISWSGGSTYYSDSVKGRFTISRDNAKNTVYLQMNSLKPEDTAVYYCNVKRYGGRSDYWGQGSQVTVSS	high polyreactivity
QVQLVESGGGLVQAGGSLRLSCAASGSIFKTYAMGWYRQAPGKERELVAAITSSGGSTYYADSVKGRFTISRDNAKNTVYLQMNSLKPEDTAVYYCNARYWGYWGDHYDYWGQGTQVTVSS	high polyreactivity
QVQLVESGGGLVQAGGSLRLSCAASGRIFKPYVMGWYRQAPGKERELVAAITRGGSTNYADSVKGRFTISRDNAKNTVYLQMNSLKPEDTAVYDCAVYYYGTWGWDDYWGQGTQVTVSS	high polyreactivity
QVQLVESGGGLVQAGGSLRLSCAASGRTFETNAMGWYRQAPGKERELVASINWSGGSTYYADSVKGRFTISRDNAKNTVYLQMNSLKPEDTAVYYCAAEHSYWDWWSYYYWGQGTLVTVSS	low polyreactivity
QGQLVESGGGIVQAGVSLRLSCAASGSIFTANAMGWYRQAPGKVRELVAAISRSGGRTYYADSVKGRFTISRDNAKNTVYLQMNSLNPEDTAVYYCNVGSFNTSGYDYWGQGTQVTVSS	high polyreactivity
QVQHVESRGGLVQAGGSLRLSCAASGFISRAYAMGWYRQAPGKERELVAAISVRVGSTYYADSVKGRFTISRDNAKNTVYLQMYSLKPEDTAVYYCAALRPWPRYDYWGQGTQVTVSS	high polyreactivity

Sequence	polyreactivity (PSR sort gate)
QVQLVESGGGLVQAGGSLRLSCAASGSIFFYNTMGWYRQARGKERELVATINSDDSTYYADSVKGGFTISRDNAKNTVYIQMNSLKPEDTAVYYCNVRVKGGKLVAYDYWGQGTQVTLSS	low polyreactivity
QVQLVESGGGLVQAGGSLRLSCAASGIIFGVYAMGWYREAPGKERELVAAISRSGDSTYYADSVKGRFTISRDNAKNTVYLQMNSLKPEDTAVYYCAAEWYFTFDYWGQGTQVTVSS	low polyreactivity
QVQLVESGGGLVQAGGSLRVSCAASGFIFPGNAMGWYRQAPGKERELVAAISNSGSRTYYADSVKGRFTISRDNAKNTVYLQMNSLKPEDTAVYYCNADVHNRGWPYDYWGQGTQVTVSS	low polyreactivity
QVQLVESGGGLVQAGGSLRLSFAASGIIFTRYAMGWYRQAPGKERELVARISWRGSSTSYPDSVKGRFTISRDNAKNTVYLQMNSLKPEDSAVYYCAARYLYLWADYEFGYWVQGTQVTVSS	high polyreactivity
QVQLVESGGGLVQAGGSLRLSSAASGYIFDLNAMGRYRQAPGKERELVAAISTGGGTYYADSVKGRFTISRDNAKNTVYLQMNSLKPEDTAVYYCAADWGYWYAEYDYWGQGTLVTVSS	low polyreactivity
QVQLVESGGGLVQAGGSLRLSCAASGFTFRWYAMGWYRQEPGKERELVAAITSSGGRTYYADSVKGRFTISRDNAKNTVYLQMNSMKPEDTAVYYCATDLRTRKYDYWGQGTQVTVSS	high polyreactivity
QVQLVESGGGLVQAGGSLRLSCAASGRTFFKYAMGWYRQAPGKERELVAAISSVGSTYYADSVKGRFTISRDNAKNSVYLQMNSLKPEDTAVYYCAARKNRAYGYWGQGTQVTVSS	high polyreactivity
QVQLVESGGGLVQAGGSLRLSCAASGRTFGSYAMGWYRQAPGKERELVAAIRYRGGSTYYADSVKGRFTISRDNAKNTVYLQMNSLKPEDTAVYYCAAKQGRYNIYSNYDYWGQGTQVTVSS	high polyreactivity
KVQLVESGGGLVQAGGSLRLSCAASGRTFLRYAMGWYRQAPGKERELVAAISTSGGSTYYADSVKGRFTISRDNAKNTVYLQMNSLKPEDTAVYYCAATSTSYTYTHSYGYWGQGTQVTVSS	low polyreactivity
QVQLVESGGGLVQAGGSLRLICAASGRTFQYNAMGWYRQAPGKERELVAAISARAGSTYYADSVKGRFTISRDNAKNTVYLQMNRLKPEDTAVYYCAARAWTRSVPYGFYYWGQGTQVTVSS	high polyreactivity
QVQLVESGGGLVQAGGSLRLSCAASGFILGTYAMGWYRQAPGKERELVAAISRSGGSTYYADSVKGRFTISRDNAKNSVYLQMNSLKPEDTAVYYCNTVRVHGFPIDRIYDYWGQGTQVTVSS	high polyreactivity
QVQLVESGGGLVQAGGSLRLSCAASGSTFDGNAMGWYRPAPGKERELVAAITWRDGSTSYADSVKGRFTISRDNAKNTVYLQMNSLKPEDTAVYYCNADPGYLDEEYWGQGTQVTVSS	low polyreactivity
QVQLVESGGGLVQAGCSLRLSCAASGSTFSPNAMGWYRQAPGKERELVASIRIGGRTNYADSVKGRFTISRDNAKNTVYLQMNSLKPEDTAVYYCARRHYYSRFTVSKLSRYDYWGQGTQVTVSS	high polyreactivity
QVQLVESGGGLVQAGGSLRLSCAASGSIFPDNAMGRYRQAAGKVRELVAAIDKGTGSTNYADSVKGRFTISRDNAKNSVYLQINSVKPEDTAGYYCDKGWLSPRGGAWYDDYWGQGTEVTVSS	low polyreactivity
QVQLVESGGGLVQAGGSLRLSCAASGSIFSGNVIGWYRQAPGKERELVAAISGRGGSTYYADSVKGRFTISRDNAKNTVYLQMNSLKPEDTAVYYCAAVYLKTYYWGQGTQVTVSS	high polyreactivity
QVQLVESGGGLVQAGGSLRLSCAASGFIFAPYAMGWYRQAPGKEREFVASITYGSDSTYYADSVKGRFTISRDNAKNTVYLQMNSLKPEDTAVYYCNREGWHYGPYGYWGQGTQVTVSS	low polyreactivity
QAQLQESGGSLVQAGGGLRLSCAASGYISVGSVMGWYRQAPSKERELVASIDQGANTNYADSVKGRFTISRDNAKNYVYLQMNSLKPEDTAVYYCATETTYILNYWGQGTQVTVSS	low polyreactivity
QVQLVESGGGLVQAGGSLRLSCAASGFTFSVNAMGWYRQAPGKERELVAAITWSGGSTYYADSVKGRFTISRDNAKNTDYLQMNSLKPEDTAVFYCNARAQSSWGFWYDYWGQGTQVTVSS	high polyreactivity
QVQLVESGGGLVQAGGSLRLSCAASGFTFASYAMGWYRQAPGKEREFVAAITRSGGSTYYADSVKGRFTISRDNAKNTVYLQMNSLKPEDTAVYYCNRVTSSEFDYWGQGTQVTVSS	high polyreactivity
QVQLVESGGGLVQAGGSLRLSCAASGSTFLYVMGWYRQAPGKERELVAAISESGGSTYYADSVKGRFTISRDNAKNTVYLQMNSLKPEDTAVYYCAADLQTGLQYRYYRVDYWGQGTQVTVSS	low polyreactivity
QVQLVESGGGLVQAGGSLRLSCAASGSTFKYYTMGWYIQAPGKERELVAGITLSGTTTYYADSEKGRFTISRDNAKNTVYLQMNSLKPEDTAVYYCAADYYHDFNAYYYWGQGTQVTVSS	low polyreactivity

From the nanobody polyreactivity screen of Harvey et al. (2022)
